IntAct's records for PubMed 22291008

B1: CMRF35-like molecule 5 (Homo sapiens), Q6UXZ3 (parent)
chain: MWLSPSLLLLILPGYSIAAKITGPTTVNGSEQGSLTVQCAYGSGWETYLKWRCQGADWNYCNILVKTNGSEQEVKKNRVSIRDNQKNHVFTVTMENLKRDDADSYWCGTERPGIDLGVKVQVTINPGTQTAVSEWTTTTASLAFTAAATQKTSSPLTRSPLKSTHFLFLFLLELPLLLSMLGTVLWVNRPQRRS
B2: High affinity immunoglobulin epsilon receptor subunit gamma (Homo sapiens), P30273 (parent)
chain: MIPAVVLLLLLLVEQAAALGEPQLCYILDAILFLYGIVLTLLYCRLKIQVRKAAITSYEKSDGVYTGLSTRNQETYETLKHEKPPQ
partner: B1 chain

Variants of: B1
Conditions: with fcerg_human FCER1G, P30273

Variant | effect of a mutation on the interaction
E173A | with no effect

Variants of: B2
Conditions: with clm5_human CD300LD, Q6UXZ3

Variant | effect of a mutation on the interaction
D29A | decreasing interaction strength
